The record followed here is US20200283523A1.

Usually EC50 (read off the curve) stands for the concentration at which the effect is half-maximal. A higher EC50 (read off the curve) goes with lower potency in that assay.

In the assay the target is C1Q (UniProt P02745). In words: ELISA, antibody coated on the plate, C1q titrated (axis [C1q] nM), anti-human C1q-HRP detection. For orientation: An ELISA detects its analyte on a solid surface through an enzyme-linked reagent.
Chain of C1Q (P02745 23-245 limits assumed, chain 1 of 3): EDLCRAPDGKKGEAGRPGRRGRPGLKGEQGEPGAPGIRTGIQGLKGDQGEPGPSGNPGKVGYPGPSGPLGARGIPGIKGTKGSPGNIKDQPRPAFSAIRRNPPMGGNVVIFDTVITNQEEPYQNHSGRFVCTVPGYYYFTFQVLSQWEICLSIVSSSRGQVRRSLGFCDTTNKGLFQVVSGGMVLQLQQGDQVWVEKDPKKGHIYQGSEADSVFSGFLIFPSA
Chain of C1Q (P02746 28-253 limits assumed, chain 2 of 3, further chain): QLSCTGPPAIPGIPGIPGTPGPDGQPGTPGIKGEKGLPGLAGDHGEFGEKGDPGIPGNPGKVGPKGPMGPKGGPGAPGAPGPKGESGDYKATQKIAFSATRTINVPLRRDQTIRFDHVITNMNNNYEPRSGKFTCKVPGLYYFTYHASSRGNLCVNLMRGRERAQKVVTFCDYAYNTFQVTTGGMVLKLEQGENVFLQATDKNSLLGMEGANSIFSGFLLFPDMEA
Chain of C1Q (P02747 29-245 limits assumed, chain 3 of 3, further chain): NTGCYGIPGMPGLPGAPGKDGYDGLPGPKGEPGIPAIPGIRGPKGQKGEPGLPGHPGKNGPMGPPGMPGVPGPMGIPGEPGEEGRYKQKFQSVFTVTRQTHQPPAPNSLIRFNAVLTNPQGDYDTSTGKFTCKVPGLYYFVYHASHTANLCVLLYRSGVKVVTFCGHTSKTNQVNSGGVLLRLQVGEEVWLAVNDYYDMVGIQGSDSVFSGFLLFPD

Substance control human IgG1 antibody gave a concentration giving a half-maximal response (EC50 (read off the curve)) of 0.03 µM.
